From patent publication US20260167693A1 (ANGELES THERAPEUTICS, published 2026)

T1: human CD19 (human, UniProt P15391 20-556)
T1 sequence (looked up): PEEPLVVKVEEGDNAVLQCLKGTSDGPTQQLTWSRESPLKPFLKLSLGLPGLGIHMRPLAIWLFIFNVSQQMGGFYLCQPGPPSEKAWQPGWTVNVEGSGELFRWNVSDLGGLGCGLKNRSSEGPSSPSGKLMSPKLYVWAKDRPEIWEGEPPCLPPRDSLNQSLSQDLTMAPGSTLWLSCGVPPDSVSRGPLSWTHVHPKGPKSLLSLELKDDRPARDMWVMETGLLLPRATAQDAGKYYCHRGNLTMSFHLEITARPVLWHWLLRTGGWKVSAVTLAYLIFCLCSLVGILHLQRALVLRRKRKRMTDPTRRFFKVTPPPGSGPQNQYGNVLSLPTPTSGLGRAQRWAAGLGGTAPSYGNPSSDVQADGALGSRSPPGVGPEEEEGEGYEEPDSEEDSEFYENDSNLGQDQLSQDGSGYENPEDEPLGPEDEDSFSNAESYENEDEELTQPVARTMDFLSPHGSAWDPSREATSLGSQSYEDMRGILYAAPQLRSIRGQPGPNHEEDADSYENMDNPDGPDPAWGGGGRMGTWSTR


What follows are binders tested against T1, human CD19 (assay: cell-based or functional assay).

Row | Binder | NFAT-GFP (%) after overnight co-culture with RAJI cells [%]
1 | CD8SP-V5-[hTCRb-KACIAH]-F-P2A-CD8SP-CD19-hu-mROO5-vL-Gly-Ser-Linker-CD19-hu-mROO5-vH-Myc-[hTCRa-CSDVP]-F-F2A-PAC (other) TCR beta: GKPIPNPLLGLDSTGSGEDLKNVFPPEVAVFEPSKAEIAHTQKATLVCLATGFYPDHVELSWWVNGKEVHSGVCTDPQPLKEQPALNDSRYCLSSRLRVSATFWQNPRNHFRCQVQFYGLSENDEWTQDRAKPVTQIVSAEAWGRADCGITSASYHQGVLSATILYEILLGKATLYAVLVSALVLMAMVKRKDSRG TCR alpha: DIQMTQSPSSLSASVGDRVTITCKASDHINNWLAWYQQKPGQAPKLLIYGATTLETGVPSRFSGSGSGTDYTLTISSLQPEDFATYYCQQSWNTPWTFGQGTKLEIKRGGGGSGGGGSGGGGSQVQLQQPGAELVKPGASVKMSCKASGYAFSSYWINWMKQKPGQGLEWIGQIYPGDGDTNYNGKFKGRATLTADTSSSTAYMQLSSLTSEDSAVYFCARSITTVVGCAMDYWGQGTSVTVSSEQKLISEEDGSGIQNPDPAVYQLRDSKSSDKSVCLFTDFDSQTNVSQSKDSDVYITDKCVLDMRSMDFKSNSAVAWSNKSDFACANAFNNSIIPEDTFFPSSDVPCDVKLVEKSFETDTNLNFQNLSVIGFRILLLKVAGFNLLMTLRLWSS | 9.55
2 | CD8SP-V5-[hTCRb-KACIAH]-F-P2A-CD8SP-hCD19-EUK5-13-vL-Gly-Ser-Linker-hCD19-EUK5-13-vH-Myc-[hTCRa-CSDVP]-F-F2A-PAC (other) TCR beta: GKPIPNPLLGLDSTGSGEDLKNVFPPEVAVFEPSKAEIAHTQKATLVCLATGFYPDHVELSWWVNGKEVHSGVCTDPQPLKEQPALNDSRYCLSSRLRVSATFWQNPRNHFRCQVQFYGLSENDEWTQDRAKPVTQIVSAEAWGRADCGITSASYHQGVLSATILYEILLGKATLYAVLVSALVLMAMVKRKDSRG TCR alpha: LPVLTQPPSVSVAPGKTARITCGGNNIGSKSVHWYQQKPGQAPVLVVYDDSDRPSGIPERFSGSNSGNTATLTISRVEAGDEADYYCQVWDSSSDYVVFGGGTKLTVLGGGGSGGGGSGGGGSEVQLVQSGAEVKKPGESLKISCKGSGYSFTSYWIGWVRQMPGKGLEWMGIIYPGDSDTRYSPSFQGQVTISADKSISTAYLQWSSLKASDTAMYYCARQVWGWQGGMYPRSNWWYNLDSWGQGTLVTVSSEQKLISEEDGSGIQNPDPAVYQLRDSKSSDKSVCLFTDFDSQTNVSQSKDSDVYITDKCVLDMRSMDFKSNSAVAWSNKSDFACANAFNNSIIPEDTFFPSSDVPCDVKLVEKSFETDTNLNFQNLSVIGFRILLLKVAGFNLLMTLRLWSS | 6.67

Continued, values first:

Row | NFAT-GFP (%) after overnight co-culture with RAJI cells [%] | Binder
3 | 31.6 | CD8SP-CD19-MOR0028-vL-Myc2-[hTCRb-KACIAH]-F-P2A-SP-CD19-MOR0028-vH-Myc4-[hTCRa-CSDVP]-F-F2A-PAC (other, also called 022817-L08) TCR beta: DIVMTQSPATLSLSPGERATLSCRSSKSLQNVNGNTYLYWFQQKPGQSPQLLIYRMSNLNSGVPDRFSGSGSGTEFTLTISSLEPEDFAVYYCMQHLEYPITFGAGTKLEIKEQKLISEEDLGSGEDLKNVFPPEVAVFEPSKAEIAHTQKATLVCLATGFYPDHVELSWWVNGKEVHSGVCTDPQPLKEQPALNDSRYCLSSRLRVSATFWQNPRNHFRCQVQFYGLSENDEWTQDRAKPVTQIVSAEAWGRADCGITSASYHQGVLSATILYEILLGKATLYAVLVSALVLMAMVKRKDSRG TCR alpha: EVQLVESGGGLVKPGGSLKLSCAASGYTFTSYVMHWVRQAPGKGLEWIGYINPYNDGTKYNEKFQGRVTISSDKSISTAYMELSSLRSEDTAMYYCARGTYYYGTRVFDYWGQGTLVTVSSEQKLISEEDLGSGIQNPDPAVYQLRDSKSSDKSVCLFTDFDSQTNVSQSKDSDVYITDKCVLDMRSMDFKSNSAVAWSNKSDFACANAFNNSIIPEDTFFPSSDVPCDVKLVEKSFETDTNLNFQNLSVIGFRILLLKVAGFNLLMTLRLWSS
4 | 71.8 | CD8SP-CD19-hu-mROO5-vL-[hTCRb-KACIAH]-F-P2A-SP-CD19-hu-mROO5-vH-[hTCRa-CSDVP]-F-F2A-PAC (other) TCR beta: DIQMTQSPSSLSASVGDRVTITCKASDHINNWLAWYQQKPGQAPKLLIYGATTLETGVPSRFSGSGSGTDYTLTISSLQPEDFATYYCQQSWNTPWTFGQGTKLEIKREDLKNVFPPEVAVFEPSKAEIAHTQKATLVCLATGFYPDHVELSWWVNGKEVHSGVCTDPQPLKEQPALNDSRYCLSSRLRVSATFWQNPRNHFRCQVQFYGLSENDEWTQDRAKPVTQIVSAEAWGRADCGITSASYHQGVLSATILYEILLGKATLYAVLVSALVLMAMVKRKDSRG TCR alpha: QVQLQQPGAELVKPGASVKMSCKASGYAFSSYWINWMKQKPGQGLEWIGQIYPGDGDTNYNGKFKGRATLTADTSSSTAYMQLSSLTSEDSAVYFCARSITTVVGCAMDYWGQGTSVTVSSIQNPDPAVYQLRDSKSSDKSVCLFTDFDSQTNVSQSKDSDVYITDKCVLDMRSMDFKSNSAVAWSNKSDFACANAFNNSIIPEDTFFPSSDVPCDVKLVEKSFETDTNLNFQNLSVIGFRILLLKVAGFNLLMTLRLWSS
5 | 6.77 | CD8SP-pre-TCRa-del48-F-F2A-CD8SP-CD19-hu-mRO05-1-scFv-V5-[hTCRb-S57C-opt]-F-P2A-Pac (other) TPFPSLAPPIMLLVDGKQQMVVVCLVLDVAPPGLDSPIWFSAGNGSALDAFTYGPSPATDGTWTNLAHLSLPSEELASWEPLVCHTGPGAEGHSRSTQPMHLSGEASTARTCPQEPLRGTPGGALWLGVLRLLLFKLLLFDLLLTCSCLCDPAGPLPSPATTTRLRALGSHRLHPATETGGREATSSPRPQPRDRRWGDTPPGRKPGSPV TCR beta: DIQMTQSPSSLSASVGDRVTITCKASDHINNWLAWYQQKPGQAPKLLIYGATTLETGVPSRFSGSGSGTDYTLTISSLQPEDFATYYCQQSWNTPWTFGQGTKLEIKRGGGGSGGGGSGGGGSQVQLQQPGAELVKPGASVKMSCKASGYAFSSYWINWMKQKPGQGLEWIGQIYPGDGDTNYNGKFKGRATLTADTSSSTAYMQLSSLTSEDSAVYFCARSITTVVGCAMDYWGQGTSVTVSSGKPIPNPLLGLDSTGSGEDLKNVFPPEVAVFEPSEAEISHTQKATLVCLATGFYPDHVELSWWVNGKEVHSGVCTDPQPLKEQPALNDSRYCLSSRLRVSATFWQNPRNHFRCQVQFYGLSENDEWTQDRAKPVTQIVSAEAWGRADCGFTSESYQQGVLSATILYEILLGKATLYAVLVSALVLMAMVKRKDSRG

Target: T1, human CD19
Assay: cell-based or functional assay
Remark: another data set of the same source

Row | Binder | NFAT-GFP (%) after co-culture with RAJI cells [%]
6 | CD8SP-hu-FMC65-1-vL-[hTCRb-D59C]-F-P2A-SP-hu-FMC65-1-vH-[hTCRa-T45C] (other) TCR beta: DVVMTQSPSSLSASVGDRVTITCRASQDISKYLNWYQQKPGKAPKLLIYHTSRLHSGVPSRFSGSGSGTDFTLTISSLQPEDFATYYCQQGNTLPYTFGGGTKVEIKEDLKNVFPPEVAVFEPSEAEISHTQKATLVCLATGFYPDHVELSWWVNGKEVHSGVSTCPQPLKEQPALNDSRYCLSSRLRVSATFWQNPRNHFRCQVQFYGLSENDEWTQDRAKPVTQIVSAEAWGRADCGFTSESYQQGVLSATILYEILLGKATLYAVLVSALVLMAMVKRKDSRG TCR alpha: QVQLQESGPGLVKPSQTLSLTCTVSGVSLPDYGVSWIRQPPGKGLEWIGVIWGSETTYYNSALKSRVLISVDTSKNQVSLKLSSVTAADTAVYYCARHYYYGGSYAMDYWGQGTTVTVSSIQNPDPAVYQLRDSKSSDKSVCLFTDFDSQTNVSQSKDSDVYICDKTVLDMRSMDFKSNSAVAWSNKSDFACANAFNNSIIPEDTFFPSPESSCDVKLVEKSFETDTNLNFQNLSVIGFRILLLKVAGFNLLMTLRLWSS | 1.35
7 | CD8SP-hu-FMC65-1-vL-[hTCRb-E15C]-F-P2A-SP-hu-FMC65-1-vH-[hTCRa-S15C] (other) TCR beta: DVVMTQSPSSLSASVGDRVTITCRASQDISKYLNWYQQKPGKAPKLLIYHTSRLHSGVPSRFSGSGSGTDFTLTISSLQPEDFATYYCQQGNTLPYTFGGGTKVEIKEDLKNVFPPEVAVFCPSEAEISHTQKATLVCLATGFYPDHVELSWWVNGKEVHSGVSTDPQPLKEQPALNDSRYCLSSRLRVSATFWQNPRNHFRCQVQFYGLSENDEWTQDRAKPVTQIVSAEAWGRADCGFTSESYQQGVLSATILYEILLGKATLYAVLVSALVLMAMVKRKDSRG TCR alpha: QVQLQESGPGLVKPSQTLSLTCTVSGVSLPDYGVSWIRQPPGKGLEWIGVIWGSETTYYNSALKSRVLISVDTSKNQVSLKLSSVTAADTAVYYCARHYYYGGSYAMDYWGQGTTVTVSSIQNPDPAVYQLRDCKSSDKSVCLFTDFDSQTNVSQSKDSDVYITDKTVLDMRSMDFKSNSAVAWSNKSDFACANAFNNSIIPEDTFFPSPESSCDVKLVEKSFETDTNLNFQNLSVIGFRILLLKVAGFNLLMTLRLWSS | 2.48

The next lines start with the values.

Row | NFAT-GFP (%) after co-culture with RAJI cells [%] | Binder
8 | 0.9 | CD8SP-hu-FMC65-1-vL-[hTCRb-S77C]-F-P2A-SP-hu-FMC65-1-vH-[hTCRa-T45C] (other) TCR beta: DVVMTQSPSSLSASVGDRVTITCRASQDISKYLNWYQQKPGKAPKLLIYHTSRLHSGVPSRFSGSGSGTDFTLTISSLQPEDFATYYCQQGNTLPYTFGGGTKVEIKEDLKNVFPPEVAVFEPSEAEISHTQKATLVCLATGFYPDHVELSWWVNGKEVHSGVSTDPQPLKEQPALNDSRYCLCSRLRVSATFWQNPRNHFRCQVQFYGLSENDEWTQDRAKPVTQIVSAEAWGRADCGFTSESYQQGVLSATILYEILLGKATLYAVLVSALVLMAMVKRKDSRG TCR alpha: QVQLQESGPGLVKPSQTLSLTCTVSGVSLPDYGVSWIRQPPGKGLEWIGVIWGSETTYYNSALKSRVLISVDTSKNQVSLKLSSVTAADTAVYYCARHYYYGGSYAMDYWGQGTTVTVSSIQNPDPAVYQLRDSKSSDKSVCLFTDFDSQTNVSQSKDSDVYICDKTVLDMRSMDFKSNSAVAWSNKSDFACANAFNNSIIPEDTFFPSPESSCDVKLVEKSFETDTNLNFQNLSVIGFRILLLKVAGFNLLMTLRLWSS
9 | 1.99 | CD8SP-hu-FMC65-1-vL-[hTCRb-S17C]-F-P2A-SP-hu-FMC65-1-vH-[hTCRa-Y10C] (other) TCR beta: DVVMTQSPSSLSASVGDRVTITCRASQDISKYLNWYQQKPGKAPKLLIYHTSRLHSGVPSRFSGSGSGTDFTLTISSLQPEDFATYYCQQGNTLPYTFGGGTKVEIKEDLKNVFPPEVAVFEPCEAEISHTQKATLVCLATGFYPDHVELSWWVNGKEVHSGVSTDPQPLKEQPALNDSRYCLSSRLRVSATFWQNPRNHFRCQVQFYGLSENDEWTQDRAKPVTQIVSAEAWGRADCGFTSESYQQGVLSATILYEILLGKATLYAVLVSALVLMAMVKRKDSRG TCR alpha: QVQLQESGPGLVKPSQTLSLTCTVSGVSLPDYGVSWIRQPPGKGLEWIGVIWGSETTYYNSALKSRVLISVDTSKNQVSLKLSSVTAADTAVYYCARHYYYGGSYAMDYWGQGTTVTVSSIQNPDPAVCQLRDSKSSDKSVCLFTDFDSQTNVSQSKDSDVYITDKTVLDMRSMDFKSNSAVAWSNKSDFACANAFNNSIIPEDTFFPSPESSCDVKLVEKSFETDTNLNFQNLSVIGFRILLLKVAGFNLLMTLRLWSS
